Experimental data reported in the supplement of paper PMC7125110.
± gives the standard error. This sample holds only a part of the variants without activity.

B1: glmS ribozyme (parent)
chain: AUAAAAGCGCCAGAACUACAGAAAUGUAGUUGACGAGGAGGAGGUUUAUCGAAUUUUCGGCGGAUGCCUCCAAA

Variants of: B1
Assay: self-cleavage kobs at 2500 uM GlcN6P; higher = faster cleavage; RNA array
Conditions: with glucosamine-6-phosphate
Method in brief: (§1)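 Ribozyme variants carrying barcodes were transcribed in situ on sequenced MiSeq chips by E. coli RNA polymerase and tracked at 37 °C with a hybridised Cy3 probe. They were exposed to 40 μM to 10 mM glucosamine-6-phosphate in HEPES/KCl/Mg(OAc)2 buffer. kobs came from exponential decay fits of normalised per-tile medians, and kcat and KM from weighted Michaelis–Menten fits.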

Row | Variant | self-cleavage kobs at 2500 uM GlcN6P [s⁻¹]
1 | C16U C34A G41A C68U C71A | < 1e-05
2 | A15U G51C C71U | < 1e-05
3 | G29A U47A A52U | 4.18e-05 ± 1.7e-05
4 | A14G G32U U45A | 0.00147 ± 0.00059
5 | G13U A42C C71G | < 1e-05
6 | G13U G37U U55G G66U | < 1e-05
7 | A15C G37U A39C G41A G63U G66C | < 1e-05
8 | U30A G32U C50A | < 1e-05
9 | A14G A36G U56G G59C G62U | < 1e-05
10 | A15U C50G C70A | 0.000427 ± 0.00013
11 | A15G U31G G32U U45A | 0.000424 ± 0.00012
12 | A15G U30A C71U | 0.0164 ± 0.0034
13 | C16U G43A U49A | < 1e-05
14 | A15U U55G A64U C71U | < 1e-05
15 | U30C G41C U45G | < 1e-05
16 | A14U U30A C70U | 0.000871 ± 0.00021
17 | U30C G35A G37U C70A | 0.000153 ± 4.9e-05
18 | A15C G38A C67U | < 1e-05
19 | C16G G66A U69G | 5.74e-05 ± 2.8e-05
20 | A15C A39U G59C U69C | < 1e-05
21 | A15C U30C C68G | 0.000192 ± 6.4e-05

Row | Variant | self-cleavage kobs at 2500 uM GlcN6P [s⁻¹]
22 | A14U A33C U55G | 7.4e-05 ± 2.1e-05
23 | A15U U30C C61G | < 1e-05
24 | A15U C16G C58A | 0.000131 ± 2.8e-05
25 | A14U U46C U47G | 8.01e-05 ± 2.2e-05
26 | G13C G29U C50A U56C G62C U69A | 0.000141 ± 5.2e-05
27 | C16U A36C A52C C61A | < 1e-05
28 | G13C C58G G59A | < 1e-05
29 | G29A G37U U57C | < 1e-05
30 | A15C G60A G62U | < 1e-05
31 | C16A G66A C68U | 6.12e-05 ± 1.5e-05
32 | A14G A33U G43C G62A | < 1e-05
33 | A14U C16A U31G G32U | 0.000112 ± 4.4e-05
34 | A15G G59A C70U | 4.76e-05 ± 1.4e-05
35 | C16A G66A C71G | 5.24e-05 ± 2.5e-05
36 | A15G G32C A53G | 4.37e-05 ± 1.3e-05
37 | C16A U56G C70U | 0.000265 ± 6e-05
38 | G13C U31A A64G | 9.93e-05 ± 3e-05
39 | A14C G43U C61A | < 1e-05
40 | A14C C16A G63U | < 1e-05
41 | A15C U69A | 4.7e-05 ± 1.5e-05
42 | G13A A15C C50G C70A | 0.000129 ± 2.5e-05

Row | Variant | self-cleavage kobs at 2500 uM GlcN6P [s⁻¹]
43 | C16U U31C A53C U56A C70U | 0.000183 ± 4.6e-05
44 | A15U C16U A33U A42U U57G G62C A64U | < 1e-05
45 | G29U A36U C70G | 0.000444 ± 0.0001
46 | G13A G44C U46A A53G | < 1e-05
47 | U30G A42C A52C G60U | < 1e-05
48 | A15G G35C G37U G43C | < 1e-05
49 | A28C U49G U55A | 0.000284 ± 7.5e-05
50 | A14C G35A A52G | < 1e-05
51 | G29C G35U G40U | < 1e-05
52 | G13U U47C A64G | 0.000125 ± 3.1e-05
53 | C16U U56C G63A G66U | < 1e-05
54 | A15G G51A U57C | < 1e-05
55 | U30G A33U G35C U46C | < 1e-05
56 | C16A A36G C67G | < 1e-05
57 | G13A G32C U45G | 4.68e-05 ± 1.9e-05
58 | A12G U55A U69G | 0.000115 ± 3e-05
59 | U30A G37C U65G G66U | < 1e-05
60 | A14C G37C G62C | < 1e-05
61 | G13A U45G A64G | 6.3e-05 ± 1.9e-05
62 | G13U U30C G32C | 6.71e-05 ± 2.9e-05
63 | A15G G38U G60A | < 1e-05

Row | Variant | self-cleavage kobs at 2500 uM GlcN6P [s⁻¹]
64 | A12U U57C C71G | 0.000242 ± 0.00011
65 | A14G U30C U47A | 0.000323 ± 8.4e-05
66 | A14U G44A C50A | < 1e-05
67 | G13A G32C U54C | 0.000273 ± 9.2e-05
68 | A14C U46C C70U | 0.000279 ± 5.2e-05
69 | A24C G40U | 0.00193 ± 0.0007
70 | A15U A39U U69C | 0.000466 ± 0.00018
71 | A15U U30C U31C G40U A64U G66A | < 1e-05
72 | G13A G32U A39U | 4.61e-05 ± 8.8e-06
73 | U30C A39U U56G | 2.5e-05 ± 1.2e-05
74 | C16U G29A G41U G51U | < 1e-05
75 | U30A A33U A39G G44C U47G A52U | < 1e-05
76 | A15U C61U G62U | < 1e-05
77 | C16A G40U U54C C71U | 8.78e-05 ± 1.5e-05
78 | G29A A48U U69A | < 1e-05
79 | A15C U45A A64G | 0.00477 ± 0.002
80 | U30A U31A U57A C71U | 0.000133 ± 3.1e-05
81 | A14C G43C G51A U56G | < 1e-05

Variants of: B1
Assay: self-cleavage kobs at 10000 uM GlcN6P; higher = faster cleavage; RNA array
Conditions: with glucosamine-6-phosphate
Method in brief: as §1

Row | Variant | self-cleavage kobs at 10000 uM GlcN6P [s⁻¹]
82 | A14U C16A U31G G32U | 9.26e-05 ± 2.2e-05
83 | C16U U31C A53C U56A C70U | 0.000335 ± 8.2e-05
84 | A14G U30C U47A | 0.000556 ± 8e-05
85 | A14C U46C C70U | 0.000482 ± 9.4e-05
86 | U30C A39U U56G | 9.2e-05 ± 2.1e-05
87 | C16U G29A G41U G51U | < 1e-05
88 | A14C G43C G51A U56G | < 1e-05
